# Positions count from the first letter of the chain named.
# B1: C5^V27 (VHH)
# VHH: EVQLVESGGGVVQPGGSLKLSCVASGADFSINYIRWYRQAPGKQREFVAGFTATGNTNYADSMKGRFTISRDNTKNAVYLQIDSLKPEDTAVYYCYMLDKWGQGTQVTVSS
# B2: C5-ΔHis-siSOD1m (VHH)
# VHH: B1 VHH with A27T, Y33F
# modifications: conjugated to the siSOD1m siRNA duplex through a linker; site and tag not given for this conjugate ; Conjugated at a C-terminal tag (not given) through a linker to the chemically modified siSOD1m duplex (SEQ ID NOs 465/466).
# notes: Member of the group m173; also called VHH-deltaHis-siSOD1m wherein VHH is C5; not shown: The C-terminal conjugation tag of the 'ΔHis' form, which the text never defines
# B3: C5-siSOD1m (VHH)
# VHH: B1 VHH with A27T, Y33F
# modifications: chain 1 pos 125: Gln of the LQR Q-tag carrying the transglutaminase-installed azido linker clicked to the 3' end of the sense strand of the chemically modified siSOD1m duplex (SEQ ID NOs 465/466, no 5'VP), written Q
# notes: Member of the group m173; siRNA without 5'VP, so not the same as m166
# B4: C5-Thiol-Mal-siSOD1m (VHH)
# VHH: B1 VHH with A27T, Y33F
# modifications: chain 1 pos 117: free Cys of the tag coupled by thiol-maleimide chemistry to the maleimide-functionalised siSOD1m duplex (SEQ ID NOs 465/466), written C
# notes: Member of the group m173; also called VHH-thiol-Mal-siSOD1m wherein VHH is C5
# B5: VHH A9 (C5^V9) (VHH)
# VHH: B1 VHH with A27T, Y33F, K100A
# B6: C5V7-siSOD1m (VHH)
# VHH: B1 VHH with A27T, Y33F, L98A
# modifications: conjugated to the siSOD1m siRNA duplex through a linker; site and tag not given for this conjugate ; VHH conjugated through a C-terminal tag and a stable click linker to the 3' end of the sense strand of the siSOD1m siRNA duplex (SEQ ID NO 465/466). The letters cannot carry this.
# notes: Member of the group m173; not shown: C-terminal tag/linker that carries the siRNA
# B7: VHH A4 (C5^V4) (VHH)
# VHH: B1 VHH with A27T, Y33F, N56A
# B8: VHH A11 (C5^V11) (VHH)
# VHH: B1 VHH with A27T
# B9: VHH A3 (C5^V3) (VHH)
# VHH: B1 VHH with A27T, Y33F, T54A
# B10: C5^V29 (VHH)
# VHH: B1 VHH with Y33F, N56H
# B11: VHH A15 (C5^V15) (VHH)
# VHH: B1 VHH with A27T, Y33F, Y96F
# B12: C5V1-siSOD1m (VHH)
# VHH: B1 VHH with Y33F
# modifications: conjugated to the siSOD1m siRNA duplex through a linker; site and tag not given for this conjugate ; VHH conjugated through a C-terminal tag and a stable click linker to the 3' end of the sense strand of the siSOD1m siRNA duplex (SEQ ID NO 465/466). The letters cannot carry this.
# notes: as for B6
# B13: VHH A2 (C5^V2) (VHH)
# VHH: B1 VHH with A27T, D28A, Y33F
# B14: H1 (VHH)
# VHH: EVQLVESGGGLVQPGGSLRLSCAASGFASHLYAIGWFRQAPGKEREKVSCISSNDGSTYYADSVKGRFTISRDTVKDMVYLQMNSLKPEDTAVYYCATDLTVHCFMAEYDWWGQGTQVTVSS
# notes: also called phage-H1 (as tracer)
# B15: B8^V3 (VHH)
# VHH: EVQLVESGGGVVQPGGSLRLSCAASGEIFSINFMRWYREAPGKQREWVAGFTRDGSTNYPDSAKGRFTISRDNAKNTVYLQIDSLKPEDTAVYYCYMLDTWGQGTQVTVSS
# B16: B8h1-siSOD1m (VHH)
# VHH: B15 VHH with E39Q, Q44G, R45L, A63V, I82M, D83N, K86R
# modifications: chain 1 pos 125: Gln of the LQR Q-tag carrying the transglutaminase-installed azido linker clicked to the 3' end of the sense strand of the chemically modified siSOD1m duplex (SEQ ID NOs 465/466), written Q
# notes: Member of the group m173
# B17: B8-siSOD1m (VHH)
# VHH: B15 VHH with E39Q
# modifications: conjugated to the siSOD1m siRNA duplex through a linker; site and tag not given for this conjugate ; VHH conjugated through a C-terminal tag and a stable click linker to the 3' end of the sense strand of the siSOD1m siRNA duplex (SEQ ID NO 465/466). The letters cannot carry this.
# notes: as for B6
# Columns and labels:
# [1] = target: T1, mouse TfR ectodomain fused to a mouse IgG1 Fc fragment (mouse, UniProt Q62351 89-763); assay: SPR, kinetic
# T1 construct: extracellular domain; not shown: mouse IgG1 Fc fragment
# T1 sequence (Q62351 89-763): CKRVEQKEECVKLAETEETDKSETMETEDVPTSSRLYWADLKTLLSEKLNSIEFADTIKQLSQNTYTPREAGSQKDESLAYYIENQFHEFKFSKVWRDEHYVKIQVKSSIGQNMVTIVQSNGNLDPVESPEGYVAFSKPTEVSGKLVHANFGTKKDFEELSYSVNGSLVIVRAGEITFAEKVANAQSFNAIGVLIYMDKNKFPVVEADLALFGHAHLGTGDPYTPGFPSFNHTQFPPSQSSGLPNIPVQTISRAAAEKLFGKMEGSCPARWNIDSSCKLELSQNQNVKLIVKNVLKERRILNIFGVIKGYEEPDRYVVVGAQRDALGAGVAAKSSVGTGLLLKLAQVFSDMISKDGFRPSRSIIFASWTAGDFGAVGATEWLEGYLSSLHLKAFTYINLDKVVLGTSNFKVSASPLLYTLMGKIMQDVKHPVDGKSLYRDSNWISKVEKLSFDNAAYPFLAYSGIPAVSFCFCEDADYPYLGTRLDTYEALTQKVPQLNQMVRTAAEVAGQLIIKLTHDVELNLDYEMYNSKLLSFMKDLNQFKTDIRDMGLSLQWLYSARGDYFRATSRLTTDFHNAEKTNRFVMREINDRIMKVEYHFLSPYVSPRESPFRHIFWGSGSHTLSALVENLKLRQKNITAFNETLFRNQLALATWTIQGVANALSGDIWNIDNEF
# In short: (§1)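 TfR–mouse Fc fusions, produced in-house, captured on HC 1500M or CM5 chips either directly or via immobilized anti-mouse IgG. VHHs injected in single-cycle or multiple-cycle kinetic mode on Biacore T200.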
# [2] = target: T2, rhesus monkey TfR ectodomain fused to a mouse IgG1 Fc fragment (rhesus monkey, UniProt I0FKY7 89-760); assay: SPR, kinetic
# T2 construct: extracellular domain; not shown: mouse IgG1 Fc fragment
# In short: as §1
# [3] = target: T3, rhesus monkey transferrin receptor (rhTfR) fused to EGFP, on CHO cells (rhesus monkey); assay: apparent Kd, flow cytometry, CHO cells
# T3 construct: whole, on cells; also called rhesus monkey TfR
# In short: (§2)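 CHO cells expressing TfR-EGFP fusions, blocked in PBS/BSA 2%, then incubated with increasing VHH concentrations for 1 hr at 4° C. Bound VHH detected via anti-6His antibody and Alexa647 secondary, cells PFA-fixed, read by flow cytometry. Apparent Kd from nonlinear fit.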
# [4] = target: T4, human transferrin receptor (hTfR) fused to EGFP, on CHO cells (human, UniProt P02786 1-760); assay: apparent Kd, flow cytometry, CHO cells
# T4 construct: whole, on cells; also called human TfR; CHO-hTfR-EGFP; not shown: EGFP from pEGFP-C1 vector, fused to the N-terminal (intracellular) end of hTfR
# T4 sequence (P02786 whole entry, the tested form may be a part): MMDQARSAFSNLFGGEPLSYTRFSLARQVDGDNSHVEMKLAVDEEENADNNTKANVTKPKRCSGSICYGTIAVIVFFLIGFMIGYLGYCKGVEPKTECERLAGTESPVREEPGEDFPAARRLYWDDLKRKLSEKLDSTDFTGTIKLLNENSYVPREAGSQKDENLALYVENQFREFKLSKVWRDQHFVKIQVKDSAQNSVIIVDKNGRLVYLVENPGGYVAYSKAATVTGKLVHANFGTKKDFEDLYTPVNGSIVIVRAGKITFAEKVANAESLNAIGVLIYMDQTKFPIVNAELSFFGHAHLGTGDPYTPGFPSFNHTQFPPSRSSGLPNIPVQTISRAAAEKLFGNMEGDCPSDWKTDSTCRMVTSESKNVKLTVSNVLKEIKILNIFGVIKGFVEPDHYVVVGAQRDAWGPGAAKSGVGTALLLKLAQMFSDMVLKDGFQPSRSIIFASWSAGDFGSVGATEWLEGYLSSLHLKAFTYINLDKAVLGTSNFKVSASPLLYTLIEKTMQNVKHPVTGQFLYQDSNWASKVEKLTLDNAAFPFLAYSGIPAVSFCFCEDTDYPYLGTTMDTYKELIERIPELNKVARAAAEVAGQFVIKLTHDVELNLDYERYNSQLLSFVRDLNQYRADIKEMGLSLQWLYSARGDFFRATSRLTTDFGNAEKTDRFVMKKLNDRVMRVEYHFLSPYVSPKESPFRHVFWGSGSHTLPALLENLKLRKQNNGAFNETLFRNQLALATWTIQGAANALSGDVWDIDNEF
# In short: as §2
# [5] = target: T5, mouse transferrin receptor (mTfR) fused to EGFP, on CHO cells (mouse, UniProt Q62351 1-763); assay: apparent Kd, flow cytometry, CHO cells
# T5 construct: whole, on cells; also called mouse TfR; CHO-mTfR-EGFP; not shown: EGFP
# T5 sequence (Q62351 whole entry, the tested form may be a part): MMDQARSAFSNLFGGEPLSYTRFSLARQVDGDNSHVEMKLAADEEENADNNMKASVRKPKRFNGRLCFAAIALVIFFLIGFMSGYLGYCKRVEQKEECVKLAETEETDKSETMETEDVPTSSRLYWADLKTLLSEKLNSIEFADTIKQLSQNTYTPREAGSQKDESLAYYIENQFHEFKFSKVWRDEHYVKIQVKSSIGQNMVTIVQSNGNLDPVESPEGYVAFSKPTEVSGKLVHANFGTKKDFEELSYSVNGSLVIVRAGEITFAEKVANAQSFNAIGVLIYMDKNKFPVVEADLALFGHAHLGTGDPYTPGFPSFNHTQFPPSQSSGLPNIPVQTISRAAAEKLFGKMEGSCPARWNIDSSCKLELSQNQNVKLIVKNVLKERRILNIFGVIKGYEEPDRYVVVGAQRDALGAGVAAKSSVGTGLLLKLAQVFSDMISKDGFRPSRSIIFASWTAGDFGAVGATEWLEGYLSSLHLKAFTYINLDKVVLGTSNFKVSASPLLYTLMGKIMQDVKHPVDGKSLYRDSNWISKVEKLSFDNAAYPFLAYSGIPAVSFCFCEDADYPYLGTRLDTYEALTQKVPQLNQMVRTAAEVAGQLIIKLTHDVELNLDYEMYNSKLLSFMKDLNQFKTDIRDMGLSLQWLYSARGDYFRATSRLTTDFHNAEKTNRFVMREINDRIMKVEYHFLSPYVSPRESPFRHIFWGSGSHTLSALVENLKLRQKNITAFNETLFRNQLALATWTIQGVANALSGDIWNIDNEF
# In short: as §2
# [6] = target: T1, mouse TfR ectodomain fused to a mouse …; assay: SPR, at equilibrium
# In short: as §1
# [7] = target: T6, murine TfR expressed by murine neuroblastoma Neuro-2a cells (mouse, UniProt Q62351 1-763); assay: competition with the fluorescent reference VHH on Neuro-2a cells as in FIG. 25; Ki/app on mTfR
# T6 construct: whole, on cells; also called mTfR (N2a cells)
# T6 sequence (Q62351 whole entry): as the sequence (Q62351 whole entry, the tested form may be a part) above
# Procedure: The binding of VHH-Oligo and VHH-hFc-Oligo conjugates to mTfR was evaluated using a competition assay on living cells expressing the receptor of interest, namely murine neuroblastoma Neuro-2a cells (N2a). N2a cells were grown in Dulbecco's Modified Eagle Medium (DMEM) GlutaMAX supplemented with 10% v/v FBS in 5% CO₂ at 37° C. Cells were seeded two days before experiments in 96-well plates at a density of 50.000 cells/well. […] Resuspended cells were transferred in a 96-deepwell plate (V-bottom) containing 1% fetal bovine serum (FBS)/0.02% sodium azide in phosphate-buffered saline (PBS) and then centrifuged for 5 min at 2000 rpm at 4° C. After removing the supernatant, 5 mM EDTA in D-PBS and 4% paraformaldehyde (PFA) (v/v 1:1) were added into wells to fix cells for 15 min at room temperature. PFA was removed by centrifugation (5 min, 3000 rpm, 4° C.) and cells were resuspended with 5 mM EDTA in D-PBS. Then the cellular A680-associated fluorescence signal was quantified using an Attune™ NxT flow cytometer (Thermo Fisher Scientific) equipped with Attune™ NxT v3.1.2. Experimental data (experimental triplicates) were fitted with GraphPad Prism® software using a nonlinear fit to determine the apparent Ki inhibition constants.
# [8] = target: T7, human TfR ectodomain fused to a mouse IgG1 Fc fragment (human, UniProt P02786 89-760); assay: SPR, kinetic
# T7 construct: extracellular domain; ectodomain fused to the N-terminal end of the Fc, made in-house; not shown: mouse IgG1 Fc fragment
# T7 sequence (P02786 89-760): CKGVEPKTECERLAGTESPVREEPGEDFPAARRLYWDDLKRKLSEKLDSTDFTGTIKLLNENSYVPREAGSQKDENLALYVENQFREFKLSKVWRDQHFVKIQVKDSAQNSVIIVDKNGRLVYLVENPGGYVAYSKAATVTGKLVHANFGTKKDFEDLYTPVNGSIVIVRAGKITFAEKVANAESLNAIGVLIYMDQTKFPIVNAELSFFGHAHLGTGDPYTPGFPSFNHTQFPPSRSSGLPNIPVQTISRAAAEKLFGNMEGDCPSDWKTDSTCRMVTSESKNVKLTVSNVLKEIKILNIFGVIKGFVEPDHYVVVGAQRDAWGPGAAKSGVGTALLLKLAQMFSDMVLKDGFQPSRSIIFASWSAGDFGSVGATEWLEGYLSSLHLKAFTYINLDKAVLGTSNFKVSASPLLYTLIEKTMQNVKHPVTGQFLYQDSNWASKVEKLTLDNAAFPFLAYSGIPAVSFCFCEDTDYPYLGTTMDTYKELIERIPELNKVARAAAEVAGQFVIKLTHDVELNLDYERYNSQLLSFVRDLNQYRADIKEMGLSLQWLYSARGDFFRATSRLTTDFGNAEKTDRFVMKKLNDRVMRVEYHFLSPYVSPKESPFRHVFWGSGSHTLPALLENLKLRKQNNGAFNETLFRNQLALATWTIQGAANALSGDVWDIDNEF
# In short: as §1
# [9] = target: T5, mouse transferrin receptor (mTfR) fused …; assay: flow cytometry, CHO cells
# Procedure: The binding properties of VHHs with affinity for the TfR from different species (i.e., human (h), mouse (m) and rhesus monkey (rh)) were tested using flow cytometry, and apparent affinities (Kd app) were determined. All experiments were performed in 96 well plates using 2×10⁵ cells/well, at 4° C. with shaking. CHO cell lines expressing the hTfR, mTfR or rhTfR fused to EGFP were saturated with PBS/BSA 2% solution during 30 min to avoid nonspecific binding, followed by incubation with purified VHHs at increasing concentrations for 1 hr. After one wash in PBS/BSA 2%, cells were incubated for 1 hr with an anti-6His tag antibody (mouse), washed twice with PBS/BSA 2%, and incubated for 1 hr with an Alexa647-conjugated anti-mouse secondary antibody. After two last washes in PBS/BSA 2%, cells were fixed by incubation for 15 min with PBS/PFA 2%, washed once with PBS and finally resuspended in PBS. Fluorescence levels were assessed using an Attune NxT flow cytometer (Thermo Fisher Scientific). Experimental data were fitted with GraphPad Prism® software using a nonlinear fit to determine the apparent Kd constants. […] Table 5 hereafter summarizes apparent Kd obtained for the tested VHHs.
# [10] = target: T7, human TfR ectodomain fused to a mouse …; assay: SPR, at equilibrium
# In short: as §1
# [11] = target: T2, rhesus monkey TfR ectodomain fused to a …; assay: SPR, at equilibrium
# In short: as §1
Binder,Kd [1] [nM],koff [1] [s⁻¹],kon [1] [M⁻¹ s⁻¹],Kd [3] [nM],Kd [4] [nM],Kd [5] [nM],Kd [6] [nM],Ki [7] [nM],other results
B1,207,0.102,493000,178,3.1,197,379,,Kd [2]: 83.9 nM; koff [2]: 0.0278 s⁻¹; kon [2]: 332000 M⁻¹ s⁻¹
B2,,,,,,,,137,
B3,,,,,,,,161,
B4,,,,,,,,164,
B5,40.8,0.0197,524000,4.6,3.4,47,40.5,,
B6,,,,,,,,10100,
B7,89.7,0.0532,652000,3.4,3.1,179,91.8,,
B8,61.3,0.0218,355000,20,3.4,197,74.7,,Kd [8]: 0.395 nM; koff [8]: 0.000311 s⁻¹; kon [8]: 790000 M⁻¹ s⁻¹
B9,83.5,0.0467,647000,7,,138,98.8,,
B10,143,0.0675,472000,66,2.9,207,240,,Kd [8]: 0.846 nM; koff [8]: 0.000982 s⁻¹; kon [8]: 1.17e+06 M⁻¹ s⁻¹
B11,70.6,0.0563,797000,10,3.7,207,61.1,,Kd [8]: 0.252 nM; koff [8]: 0.000176 s⁻¹; kon [8]: 700000 M⁻¹ s⁻¹
B12,,,,,,,,224,
B13,109,0.0579,583000,5.7,3.2,136,108,,
B14,,,,3.7,11,,,,binding result [9]: no binding; Kd [8]: 57.7 nM; koff [8]: 0.00554 s⁻¹; kon [8]: 108000 M⁻¹ s⁻¹; Kd [2]: 22.2 nM; koff [2]: 0.0109 s⁻¹; kon [2]: 662000 M⁻¹ s⁻¹; Kd [10]: 224 nM; Kd [11]: 27.8 nM
B15,193,0.0343,178000,19,36,52,206,,Kd [8]: 0.505 nM; koff [8]: 3.38e-05 s⁻¹; kon [8]: 66900 M⁻¹ s⁻¹
B16,,,,,,,,76.1,
B17,,,,,,,,48.8,

# Reference: patent US20230414780A1 (VECT HORUS, published 2023)
